The supplement of paper PMC10126150
± gives the standard deviation of the averaged measurements.

tested on: ATP; assay: switch fluorescence ratio, 500 uM ATP over buffer (Cy3 cluster intensity, sum of 5 cycles each) (fold (ratio)); higher = stronger signal-on switching upon ATP binding; sequences stand for … in TCGTCGGCAGCGTCAGATGTGTATAAGAGACAGTTTTTTTTTTTTTTTTTTTTTTTTT…TC; conditions: aptamer strand: ATP DNA aptamer (quencher-CACCTGGGGGAGTATTGCGGAGGAAGG + anchor), 100 nM annealed; ATP concentration: 500 uM
In short: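 Per cluster, summed Cy3 intensity from the target cycles was divided by that from the buffer cycles to give the fluorescence ratio, then averaged per switch-domain sequence. Clusters outside 100-1000 RFU were excluded. The Cy3-labelled switching-strand clusters, on a modified Illumina MiSeq flow-cell, were annealed to 100 nM quencher-labelled ATP aptamer and imaged in selection buffer, then after 15 min with 500 uM ATP at 22 °C, for five cycles with NaOH stripping and re-annealing between them.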
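Note: ATP exposure 15 min at 22 °C before imaging.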

CTTAAAACGT and CACTTCCTTT are within error of each other in switch fluorescence ratio: 1.056 ± 0.0033 for the first, 1.39 ± 0.51 for the second.

Going from TAAAGTTATT to TAGCACTATC, the switch fluorescence ratio rises from 1.0106 ± 0.00041 to 1.35 ± 0.076.

GGGGGTGGCA and CGCTTTGGAA are within error of each other in switch fluorescence ratio: 0.998 ± 0.042 for the first, 0.964 ± 0.064 for the second.

AGGGAGCAGT and CCTGTGGATC are within error of each other in switch fluorescence ratio: 1.018 ± 0.01 for the first, 1.05 ± 0.042 for the second.

TCGGGCGGGG and AATGTCAGGA are within error of each other in switch fluorescence ratio: 1.036 ± 0.0098 for the first, 1.01 ± 0.044 for the second.

Going from CCTTCCTTGT to GCTGGGCGGC, the switch fluorescence ratio falls from 2.06 ± 0.031 to 0.95 ± 0.014.

CAAATTCGAG and TTTTGCGGGT are within error of each other in switch fluorescence ratio: 0.984 ± 0.0033 for the first, 0.983 ± 0.032 for the second.

AGTGTGCGTG and GGGAACGGAA are within error of each other in switch fluorescence ratio: 0.9812 ± 0.0076 for the first, 2.4 ± 1.8 for the second.

AATGGTAAGG and TGTTGTAGAC are within error of each other in switch fluorescence ratio: 0.963 ± 0.033 for the first, 0.961 ± 0.0098 for the second.

ACTGGGATC and TTATAGAATG are within error of each other in switch fluorescence ratio: 1.01 ± 0.019 for the first, 0.985 ± 0.038 for the second.

TTACTTGGGA and TAGTAGCTGT are within error of each other in switch fluorescence ratio: 1 ± 0.012 for the first, 1.04 ± 0.089 for the second.

CGTTGGAATA and GCGGTTAGGC are within error of each other in switch fluorescence ratio: 1.01 ± 0.042 for the first, 0.968 ± 0.034 for the second.

Going from GGGGTAGATG to TTGTTGTTAG, the switch fluorescence ratio rises from 0.9985 ± 0.0033 to 1.0094 ± 0.00094.

GCGAAAAACG and CGTGATTTTT are within error of each other in switch fluorescence ratio: 1.03 ± 0.056 for the first, 1 ± 0.041 for the second.

CGTATCCCGT and GCTGTTGTCG are the same in switch fluorescence ratio: 0.974 ± 0.014 for the first, 0.974 ± 0.052 for the second.

Compared with GCCATTGTTG, ATCAACGGCA is higher in switch fluorescence ratio: 0.998 ± 0.018 for the first, 1.07 ± 0.023 for the second.

TTGGCCGGAG and ACTATCGGTT are within error of each other in switch fluorescence ratio: 1.001 ± 0.0084 for the first, 1.07 ± 0.075 for the second.

CCATTTCTGA and GGGGGAACGC are within error of each other in switch fluorescence ratio: 1.03 ± 0.015 for the first, 0.998 ± 0.054 for the second.

AGTTGTGTCG and GCGGTGACTG are within error of each other in switch fluorescence ratio: 0.955 ± 0.02 for the first, 0.965 ± 0.018 for the second.

TTCGGCTTGG and GGGTGAAATT are within error of each other in switch fluorescence ratio: 0.984 ± 0.035 for the first, 0.986 ± 0.035 for the second.

TAAATTTTTA and CAGAGAAAC are within error of each other in switch fluorescence ratio: 0.986 ± 0.052 for the first, 1.1 ± 0.12 for the second.

GTGTTTAAAG and GGGACTTTTG are within error of each other in switch fluorescence ratio: 0.98 ± 0.02 for the first, 0.986 ± 0.15 for the second.

GCCGTATGG and GGGAAAGGAG are within error of each other in switch fluorescence ratio: 0.997 ± 0.012 for the first, 0.989 ± 0.035 for the second.

First: TAATGGCTCG
Second: GTCACAGTTG
The switch fluorescence ratio of the first is lower: 1 ± 0.008 for the first, 1.015 ± 0.0045 for the second.

Going from CGCATAAATA to ACACTATTAT, the switch fluorescence ratio falls from 1.16 ± 0.034 to 1.07 ± 0.033.

TCGGGGCACG and CTAATGGAAA are within error of each other in switch fluorescence ratio: 0.993 ± 0.052 for the first, 0.998 ± 0.026 for the second.

AGGGGGAGTC and CAACTAAAAA are within error of each other in switch fluorescence ratio: 1.02 ± 0.053 for the first, 1.01 ± 0.032 for the second.

ATTTTTGATG and AACGGGGGGA are within error of each other in switch fluorescence ratio: 1.02 ± 0.073 for the first, 0.979 ± 0.033 for the second.

TGTGTTTCGT and GGGGGCCGGA are the same in switch fluorescence ratio: 1.007 ± 0.0084 for the first, 1.01 ± 0.048 for the second.

TATTTTGTCT and GCGGCATGGT are within error of each other in switch fluorescence ratio: 1.1 ± 0.13 for the first, 0.985 ± 0.0093 for the second.

Compared with AATATTGGTG, ACGAACAGTT is higher in switch fluorescence ratio: 1.0416 ± 0.001 for the first, 1.15 ± 0.047 for the second.

GACGGATGTG and ACTAGGTGGG are within error of each other in switch fluorescence ratio: 0.986 ± 0.032 for the first, 1.01 ± 0.041 for the second.

AATGTCCGTC and CTAGTAAAGT are within error of each other in switch fluorescence ratio: 1.04 ± 0.046 for the first, 0.977 ± 0.037 for the second.

Going from AGCGCGGCGC to TTTGGAGCAC, the switch fluorescence ratio rises from 1.01 ± 0.051 to 1.6 ± 0.2.

TTGATGGGTG and TTTGAGGTTT are within error of each other in switch fluorescence ratio: 0.995 ± 0.015 for the first, 1.01 ± 0.011 for the second.

TTTGGGACGC and ATGTATGATA are within error of each other in switch fluorescence ratio: 1.05 ± 0.088 for the first, 0.967 ± 0.013 for the second.

CTTCGTCTCG and GGAAGATGGG are within error of each other in switch fluorescence ratio: 1.08 ± 0.072 for the first, 0.99 ± 0.021 for the second.

TCAAGAGATG and TCGTAAACGG are within error of each other in switch fluorescence ratio: 1 ± 0.015 for the first, 1.01 ± 0.02 for the second.

GTGACTTTTA and TTCGTGATTT are within error of each other in switch fluorescence ratio: 1.01 ± 0.035 for the first, 1.02 ± 0.04 for the second.

GGGGTTGTCT and TCTTTGATTT are within error of each other in switch fluorescence ratio: 1.01 ± 0.072 for the first, 1 ± 0.048 for the second.

Compared with GAGAAATACG, TGACCGTAGA is lower in switch fluorescence ratio: 1.47 ± 0.08 for the first, 1.03 ± 0.028 for the second.

TTCGAGCTAA and ATCTAAAGGG are within error of each other in switch fluorescence ratio: 1.2 ± 0.26 for the first, 0.999 ± 0.015 for the second.

ATGTGACTGG and GATTTTTGTG are within error of each other in switch fluorescence ratio: 0.986 ± 0.044 for the first, 0.992 ± 0.018 for the second.

ATTTACGGCA and CGGGGGATCC are within error of each other in switch fluorescence ratio: 1.11 ± 0.021 for the first, 1.13 ± 0.16 for the second.

GCGGGGGTCT and CGGTTTGACA are within error of each other in switch fluorescence ratio: 1.03 ± 0.1 for the first, 0.9954 ± 0.0092 for the second.

Compared with ATTAATGTTG, ATAAAGTGGA is lower in switch fluorescence ratio: 1.054 ± 0.0067 for the first, 0.984 ± 0.044 for the second.

TCGTTTTCCT and AATGGTTCTC are within error of each other in switch fluorescence ratio: 1.02 ± 0.043 for the first, 0.985 ± 0.022 for the second.

Compared with TAGAAGTCTG, GCAGTTTTA is lower in switch fluorescence ratio: 1.06 ± 0.012 for the first, 1 ± 0.014 for the second.

AGGTGCTACG and AGACGAGAAT are within error of each other in switch fluorescence ratio: 1.03 ± 0.012 for the first, 1.09 ± 0.14 for the second.

TGTGCGTCGA and TGGACAAATT are within error of each other in switch fluorescence ratio: 1.001 ± 0.00055 for the first, 1.02 ± 0.022 for the second.

AAACCCAAAG and GTCAGGGTTG are within error of each other in switch fluorescence ratio: 1.02 ± 0.045 for the first, 1 ± 0.048 for the second.

AGCGCCTCAG and AATAGTAAAT are within error of each other in switch fluorescence ratio: 1.003 ± 0.0081 for the first, 0.999 ± 0.012 for the second.

AATTTGATAG and CAAAAGGGAA are within error of each other in switch fluorescence ratio: 0.988 ± 0.018 for the first, 1.02 ± 0.024 for the second.

AACTTATTTG and AAGTTTTTGG are within error of each other in switch fluorescence ratio: 1 ± 0.028 for the first, 1.01 ± 0.03 for the second.

GGGGATTGAA and TATCGTTTTT are within error of each other in switch fluorescence ratio: 0.994 ± 0.018 for the first, 0.987 ± 0.046 for the second.

AATTAACTAT and ATGGAAAAGA are within error of each other in switch fluorescence ratio: 1.02 ± 0.027 for the first, 0.978 ± 0.016 for the second.

First: AGTAAACCAT
Second: CCGCACTAAG
The switch fluorescence ratio of the first is lower: 1.04 ± 0.03 for the first, 3.94 ± 0.74 for the second.

GAACTGGTAG and CGAGATATTG are within error of each other in switch fluorescence ratio: 0.992 ± 0.035 for the first, 0.9827 ± 0.0019 for the second.

Going from TATGCAATCA to GGGAAAGAGC, the switch fluorescence ratio rises from 1.03 ± 0.02 to 1.151 ± 0.0064.

Compared with AGAGGGGTAT, GAAAATTGAG is lower in switch fluorescence ratio: 1.04 ± 0.017 for the first, 1 ± 0.015 for the second.

GGTGGGGTAA and TTGATACGTG are within error of each other in switch fluorescence ratio: 0.9927 ± 0.0083 for the first, 1.01 ± 0.058 for the second.

First: TACTAACCAT
Second: TATTATGTCA
The switch fluorescence ratio of the first is higher: 1.12 ± 0.066 for the first, 1.01 ± 0.043 for the second.

First: ATTGTATTTT
Second: CTGGGTAAGT
The switch fluorescence ratio of the first is lower: 0.979 ± 0.022 for the first, 1.017 ± 0.0074 for the second.

Compared with GCTCGTGATA, CTGATGTTTT is lower in switch fluorescence ratio: 1.21 ± 0.05 for the first, 0.9747 ± 0.0063 for the second.

GAATCATTTT and TTGTAGGTAT are within error of each other in switch fluorescence ratio: 1.02 ± 0.036 for the first, 0.999 ± 0.069 for the second.

First: CCTTTGGGCA
Second: TGGGGGATTA
The switch fluorescence ratio of the first is higher: 1.05 ± 0.023 for the first, 0.999 ± 0.021 for the second.

Going from CCGTGGTACC to CAATTTAAGG, the switch fluorescence ratio falls from 1.84 ± 0.12 to 0.997 ± 0.041.

TAAAAACGTT and GCGTAAAAGG are within error of each other in switch fluorescence ratio: 1.07 ± 0.086 for the first, 0.974 ± 0.034 for the second.

TGGTTACTCG and TTAGAGATTC are within error of each other in switch fluorescence ratio: 0.984 ± 0.034 for the first, 0.961 ± 0.031 for the second.

TACGGAAAGT and ATACGCAGGG are within error of each other in switch fluorescence ratio: 1.02 ± 0.015 for the first, 1.06 ± 0.061 for the second.

AGTAGGAATT and AATTATTACT are within error of each other in switch fluorescence ratio: 0.99 ± 0.038 for the first, 1.02 ± 0.034 for the second.

Compared with GATGTAATGT, GGGTGTGGGT is lower in switch fluorescence ratio: 1.0081 ± 0.00064 for the first, 0.965 ± 0.026 for the second.

ATTATTGGGC and GGTGGGGTAG are within error of each other in switch fluorescence ratio: 0.981 ± 0.035 for the first, 0.988 ± 0.021 for the second.

AGGGGGGATC and GGCAGAAAGT are the same in switch fluorescence ratio: 1.01 ± 0.046 for the first, 1.014 ± 0.0027 for the second.

GGTGAAAACG and TCACTCATTG are within error of each other in switch fluorescence ratio: 0.9913 ± 0.0094 for the first, 0.9975 ± 0.0014 for the second.

First: TCAGGGTGC
Second: CGTCTAAGTG
The switch fluorescence ratio of the first is higher: 1.204 ± 0.0036 for the first, 0.99 ± 0.019 for the second.

For AGTGTATAAA, the switch fluorescence ratio was 1.042 ± 0.0077.
